These results are taken from paper PMC5548120.

The experiment has as its target T1, rat TRPV2 (transient receptor potential vanilloid 2), full-length, with a 1D4-tag (rat), Q9WUD2.
T1 chain: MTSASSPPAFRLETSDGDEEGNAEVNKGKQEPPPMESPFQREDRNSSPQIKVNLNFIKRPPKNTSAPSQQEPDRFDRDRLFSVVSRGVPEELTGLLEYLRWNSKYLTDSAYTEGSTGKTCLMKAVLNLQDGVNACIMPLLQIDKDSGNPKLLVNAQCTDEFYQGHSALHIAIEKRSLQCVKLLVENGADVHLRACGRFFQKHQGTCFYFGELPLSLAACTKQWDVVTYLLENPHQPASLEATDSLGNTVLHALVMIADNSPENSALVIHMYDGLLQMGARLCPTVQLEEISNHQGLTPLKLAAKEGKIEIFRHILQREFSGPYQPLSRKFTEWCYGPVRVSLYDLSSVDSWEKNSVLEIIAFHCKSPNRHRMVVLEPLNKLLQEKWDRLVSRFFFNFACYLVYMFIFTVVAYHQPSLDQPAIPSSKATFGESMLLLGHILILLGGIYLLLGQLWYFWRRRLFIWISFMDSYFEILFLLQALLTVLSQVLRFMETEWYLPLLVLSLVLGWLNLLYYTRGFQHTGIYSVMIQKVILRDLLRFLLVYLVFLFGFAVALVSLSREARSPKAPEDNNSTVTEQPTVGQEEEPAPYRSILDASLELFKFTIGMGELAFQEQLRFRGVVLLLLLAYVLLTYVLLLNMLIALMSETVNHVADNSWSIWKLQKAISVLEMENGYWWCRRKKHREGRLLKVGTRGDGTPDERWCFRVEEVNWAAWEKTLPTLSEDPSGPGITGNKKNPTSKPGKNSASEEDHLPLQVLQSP
As to the kind of experiment: SEC + native gel or EMSA. As to conditions: remark: other sources report otherwise. (Mobility shift assays separate free from complexed probe on a gel.)

B1: rat TRPV2 (transient receptor potential vanilloid 2), full-length, with a 1D4-tag, Q9WUD2 1-761 (natural protein)
chain: MTSASSPPAFRLETSDGDEEGNAEVNKGKQEPPPMESPFQREDRNSSPQIKVNLNFIKRPPKNTSAPSQQEPDRFDRDRLFSVVSRGVPEELTGLLEYLRWNSKYLTDSAYTEGSTGKTCLMKAVLNLQDGVNACIMPLLQIDKDSGNPKLLVNAQCTDEFYQGHSALHIAIEKRSLQCVKLLVENGADVHLRACGRFFQKHQGTCFYFGELPLSLAACTKQWDVVTYLLENPHQPASLEATDSLGNTVLHALVMIADNSPENSALVIHMYDGLLQMGARLCPTVQLEEISNHQGLTPLKLAAKEGKIEIFRHILQREFSGPYQPLSRKFTEWCYGPVRVSLYDLSSVDSWEKNSVLEIIAFHCKSPNRHRMVVLEPLNKLLQEKWDRLVSRFFFNFACYLVYMFIFTVVAYHQPSLDQPAIPSSKATFGESMLLLGHILILLGGIYLLLGQLWYFWRRRLFIWISFMDSYFEILFLLQALLTVLSQVLRFMETEWYLPLLVLSLVLGWLNLLYYTRGFQHTGIYSVMIQKVILRDLLRFLLVYLVFLFGFAVALVSLSREARSPKAPEDNNSTVTEQPTVGQEEEPAPYRSILDASLELFKFTIGMGELAFQEQLRFRGVVLLLLLAYVLLTYVLLLNMLIALMSETVNHVADNSWSIWKLQKAISVLEMENGYWWCRRKKHREGRLLKVGTRGDGTPDERWCFRVEEVNWAAWEKTLPTLSEDPSGPGITGNKKNPTSKPGKNSASEEDHLPLQVLQSP
Usually stoichiometry N stands for a count of units in the complex or per binding partner. Take B1: the stoichiometry N worked out at 4.
